Each block holds one molecule with its values, some of them ahead of it.
Key:
[1] = biological target: T1, chimeric G-CSF receptor (human G-CSF receptor extracellular domain / mouse G-CSF receptor) in Ba/F3 cell line GFG (UniProt P40223+Q99062); assay: Growth response of chimeric G-CSF receptor-expressing Ba/F3 cell line GFG (WST-8); type: cell-based; settings: 70 hours culture, WST-8 absorbance
T1 construct: the extracellular domain (from the −23rd to the 604th amino acid residues); expressed in transfected cells; host or cells: mouse Ba/F3 cells, clone GFG#342 = GFG
T1 sequence (Q99062+P40223 with tags, fused parts or gaps): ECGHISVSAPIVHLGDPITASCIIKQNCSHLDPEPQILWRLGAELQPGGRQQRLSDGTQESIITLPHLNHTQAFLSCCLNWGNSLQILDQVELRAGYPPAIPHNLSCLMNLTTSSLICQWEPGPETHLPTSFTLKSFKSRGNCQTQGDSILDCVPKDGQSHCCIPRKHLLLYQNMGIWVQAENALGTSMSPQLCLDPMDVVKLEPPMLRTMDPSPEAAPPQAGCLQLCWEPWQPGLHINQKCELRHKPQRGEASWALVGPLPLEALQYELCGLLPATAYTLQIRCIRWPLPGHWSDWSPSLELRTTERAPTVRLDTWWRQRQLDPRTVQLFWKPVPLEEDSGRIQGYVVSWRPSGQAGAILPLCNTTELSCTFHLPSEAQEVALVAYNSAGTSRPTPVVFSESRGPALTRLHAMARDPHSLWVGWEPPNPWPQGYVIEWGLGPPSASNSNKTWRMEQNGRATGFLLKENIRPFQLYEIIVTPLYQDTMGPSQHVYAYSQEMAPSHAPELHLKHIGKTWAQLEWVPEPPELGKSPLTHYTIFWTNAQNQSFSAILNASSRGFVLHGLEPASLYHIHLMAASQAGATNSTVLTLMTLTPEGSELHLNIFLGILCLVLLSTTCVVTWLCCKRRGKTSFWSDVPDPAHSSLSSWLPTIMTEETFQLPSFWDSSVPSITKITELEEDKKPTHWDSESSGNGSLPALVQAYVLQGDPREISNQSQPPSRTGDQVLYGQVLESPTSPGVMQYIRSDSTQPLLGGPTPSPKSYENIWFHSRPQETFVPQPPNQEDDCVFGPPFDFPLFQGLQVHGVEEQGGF
Source text: A chimeric receptor cDNA was constructed by linking cDNA fragments encoding the extracellular domain (from the −23rd to the 604th amino acid residues; Fukunaga, R. et al. (1990) Proc. Natl. Acad. Sci. USA 87, 8702-8706) of human G-CSF receptor, and the transmembrane and intracellular domains (from the 602nd to the 813th amino acid residues; Fukunaga, R. et al. (1990) Cell 61, 341-350) of mouse G-CSF receptor. The cDNA was inserted downstream of the HEF1α promoter of the mammalian expression vector pCOS-G to construct chimeric receptor-expression vector GG/pCOS-G. GG/pCOS-G was linearized with Pvu I (Takara Shuzo), extracted with phenol and chloroform, and purified by ethanol precipitation.
(§1) The linearized expression gene vector was introduced into mouse Ba/F3 cells using an electroporation apparatus (Gene Pulser: Bio Rad). […]
(§2) The cells were washed twice with Media A, and were suspended in Media A to give a cell density of 5×10^4 cells/mL. […] After the culture, 10 μl/well WST-8 reagent (Cell Count Reagent SF; Nacalai Tesque) was added, and pre-reaction absorbance at a measurement wavelength of 450 nm and a control wavelength of 655 nm was measured using microplate reader (Model 3550, Bio Rad). The plate was incubated for two hours in a CO2 incubator (CO2 concentration, 5%), and post-reaction absorbance was measured as above.

[2] = test system: mixed culture of cell lines GFG, EPG, TPG and parental Ba/F3; assay: Cytokine responses in mixed and individual cell cultures (Example 2); type: cell-based, mouse; settings: mixed culture of four cell lines (each 4×10^3 cells/well), similar in individual cultures, 72 hours, WST-8; listed as hG-CSF
Procedure: Mixed culture of the cell lines GFG, EPG, and TPG, which express human G-CSF, EPO, and TPO chimeric receptors, respectively, and their parental cell line Ba/F3 was conducted and their response to various cytokines was examined.
The cells were washed twice with RPMI1640 media containing 2% fetal bovine serum, and then were suspended in RPMI1640 containing 10% fetal bovine serum. The four cell lines were mixed by adjusting each of the cell lines to 4×10^4 cells/mL (16×10^4 cells/mL in total) for the mixed culture, and, for individual cultures, cells were prepared at 4×10^4 cells/mL. 100 μL each of the cells were independently seeded on a 96-well microtiter plate (flat bottom, Falcon). After adding 100 μL/well each of appropriately diluted cytokines, the cultures were cultured for 72 hours in a CO2 incubator (5% CO2 concentration). After the culture, 10 μL/well WST-8 reagent (Cell Count Reagent SF; Nacalai Tesque) was added, and pre-reaction absorbance at a measurement wavelength of 450 nm and a control wavelength of 655 nm was measured using a microplate reader (Model 3550, Bio Rad). The plate was incubated for two hours in a CO2 incubator (CO2 concentration, 5%), and post-reaction absorbance was measured as above. Data were graphed out taking the cytokine concentrations on the horizontal axis and the amount of changes in absorbance after 2-hour incubation on the vertical axis (FIGS. 18, 19, and 20).

[3] = Titer of human EPO and G-CSF prepared from recombinant CHO cells
[4] = biological target: T2, chimeric Flt-3 receptor (human Flt-3 extracellular domain / mouse G-CSF receptor) in Ba/F3 cell line FLG (Homo sapiens, UniProt P36888); assay: Growth response of chimeric Flt-3 receptor-expressing Ba/F3 cell line FLG (WST-8); type: cell-based; settings: 74 hours culture, WST-8 absorbance
T2 construct: from the 1st to the 541st amino acid residues; expressed in transfected cells; host or cells: mouse Ba/F3 cells, clone FLG#102 = FLG
Source text: A chimeric receptor cDNA was constructed by linking cDNA fragments encoding the extracellular domain (from the 1st to the 541st amino acid residues; Small, D. et al. (1994) Proc. Natl. Acad. Sci. USA. 91, 459-463) of human Flt-3, and the transmembrane and intracellular domains (from the 602nd to the 813th amino acid residues; Fukunaga, R. et al. (1990) Cell 61, 341-350) of mouse G-CSF receptor. The cDNA was inserted downstream of the EF1α promoter of the mammalian expression vector pCOS2 to construct chimeric receptor-expression vector FLG/pCOS2. The FLG/pCOS2 was linearized with Hpa I (Takara Shuzo), extracted with phenol and chloroform, and purified by ethanol precipitation.
as §1
as §2, with “5%; humidity, 99.9%),” for “5%),”

- concentration at which an evident growth reaction was observed [1]: ≥ 10 pg/mL
B1: granulocyte-colony stimulating factor (protein, UniProt P09919 31-207, looked up)
Granulocyte …: TPLGPASSLPQSFLLKCLEQVRKIQGDGAALQEKLVSECATYKLCHPEELVLLGHSLGIPWAPLSSCPSQALQLAGCLSQLHSGLFLYQGLLQALEGISPELGPTLDTLQLDVADFATTIWQQMEELGMAPALQPTQGAMPAFASAFQRRAGGVLVASHLQSFLEVSYRVLRHLAQP
notes: human G-CSF prepared from recombinant CHO cells
- concentration where the response was observed to start [2]: 2 pg/mL
- titer [3]: 1.2×10^8 IU/mg

- concentration at which an evident growth reaction was observed [4]: ≥ 300 pg/mL
B2: human Flt-3 ligand: human Flt-3 ligand (Genzyme) (protein, UniProt P49771 27-235, looked up)
Fms-related tyrosine kinase 3 …: TQDCSFQHSPISSDFAVKIRELSDYLLQDYPVTVASNLQDEELCGGLWRLVLAQRWMERLKTVAGSKMQGLLERVNTEIHFVTKCAFQPPPSCLRFVQTNISRLLQETSEQLVALKPWITRQNFSRCLELQCQPDSSTLPPPWSPRPLEATAPTAPQPPLLLLLLLPVGLLLLAAAWCLHWQRTRRRTPRPGEQVPPVPSPQDLLLVEH

Source: patent US7732133B2, “Screening methods for biologically active ligands” (Chugai Seiyaku Kabushiki Kaisha, priority 2000, dated 2010)
